In assay [1] the target is DhmeA^ΔGG (Haloferax mediterranei). In words: crystal structure; DhmeA^ΔGG 12-14 mg/mL; sitting drop at 10°C; 0.1 M MES/imidazole pH 6.5, 0.1 M amino acids, 10% PEG 4,000, 20% glycerol; 3.3 Å.
Assay [2] addresses full-length wild-type DhmeA from pnEA/3CH-dhmeA, His6 tag removed with 3C protease (Haloferax mediterranei). In words: cryo-EM structure; full-length DhmeA 0.035 mg/mL on Quantifoil grids; data collected at 0° and 44° stage tilt on a Titan Krios; 7-8 Å.
For assay [3] the target is unchanged. In words: dynamic light scattering; wild-type DhmeA 1 mg/mL in 1 M NaCl, 10 mM Tris pH 8.0, 0.5 mM TCEP; Delsa Max Core.

For the substance DhmeA^ΔGG (enzyme), the stoichiometry N in assay [1] came out at 20.

“full-length wild-type DhmeA from pnEA/3CH-dhmeA, His6 tag removed with 3C protease (enzyme)”: the stoichiometry N came out at 6 in assay [2] and 4 in assay [3].

(Values after PMC10503415.)
